One test deals with T1, endogenous Gal1 (Homo sapiens, UniProt P09382).
T1 construct: endogenous Gal1 from HL cell lines; endogenous in cells; host or cells: Hodgkin lymphoma cell line (L428)
The test can be described thus: Reactivity with endogenous Gal1 from Hodgkin lymphoma cell line (immunoblot). The format is binding. To be noted: Hodgkin lymphoma cell line (L428); immunoblots. The text has this:
Anti-human Gal1 mAbs were obtained by immunizing B6-Cg-Tg (BCL2)22Wehi-J mice (Jackson Labs, Bar Harbor, Me.) with recombinant human glutathione-s-transferase (GST)-Gal1, generating anti-Gal1 hybridomas with standard methods and purifying the Gal1 monoclonal antibody and class-matched IgG2bλ, control by affinity chromatography. […] A previously described anti-Gal1 polyclonal antibody (Juszczynski et al. (2007) Proc Natl Acad Sci USA 104:13134-9) was used as a positive control in all assays.
Expression of Gal1 protein in HL, LCL and DLBCL cell lines was determined by Western blot (WB) using the αGal1 monoclonal antibody (8F4F8G7) or the previously described polyclonal antiserum (Juszczynski et al. (2007) Proc Natl Acad Sci USA 104:13134-9). Knock-down of LMP2A was confirmed by WB using anαLMP2a antibody (Abcam, Cambridge, Mass.). Activity of the AP-1 components, cJun and JunB, in the HL cell line L428 and the LCLs RIC and NOR were interrogated by WB using αphospho(Ser63)-cJun (Cell Signaling Technology), αcJun (Cell Signaling Technology, Danvers, Mass.), αphospho(Ser259)-JunB (Santa Cruz Biotechnology, Inc. Santa Cruz, Calif.) and αJunB (Cell Signaling Technology). WBs were normalized using αβ-actin antibody (Sigma Aldrich, St. Louis, Mo.) to determine β-actin expression as a loading control.

In a further test the target is T2, Gal3 (Homo sapiens, UniProt P17931).
T2 construct: made in house
T2 sequence (P17931 whole entry, species assumed): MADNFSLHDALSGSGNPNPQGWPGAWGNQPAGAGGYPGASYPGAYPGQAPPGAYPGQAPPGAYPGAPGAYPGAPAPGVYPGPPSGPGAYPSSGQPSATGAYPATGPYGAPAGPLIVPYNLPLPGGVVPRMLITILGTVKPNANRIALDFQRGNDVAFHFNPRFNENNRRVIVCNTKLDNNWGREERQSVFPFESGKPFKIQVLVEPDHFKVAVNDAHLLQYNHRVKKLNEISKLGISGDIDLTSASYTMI
Description: Binding of 488-Gal3 to HUVEC. Particulars: 488-Gal3 20 μg/ml, mAb 0.5 μM. As for the experimental part: For glycophenotyping, ECs were incubated with biotinylated L-PHA, LEL, SNA, MAL II, PNA and HPA (all from Vector). Recombinant Gal1 was purified as described in Ilarregui et al. (2009) Nat Immunol 10, 981-991. For binding assays, ECs were incubated for 1 h at 4° C. with dyLight 488-labeled galectins in the absence or presence of lactose, sucrose, anti-Gal1 or isotype control mAb or following transfection with GnT5, GCNT1 or scrambled siRNA. Cells were analyzed on a FACSAria (BD Biosciences). For segregation, ECs were treated with Gal1 for 1 h, fixed and incubated for 1 h with anti-human VEGFR2 antibody (55B11; Cell Signaling) as described in Ilarregui et al. (2009) Nat Immunol 10, 981-991. Cells were analyzed on a Nikon laser confocal microscope (Eclipse E800).
DyLight 488-conjugated Gal1 (488-Gal1) was obtained using DyLight labeling kit (Thermo Scientific). Inhibitors of Jak2-STAT3 (AG490; 5 μM), Jnk-SAP (SP600125; 20 μM), p38 (SB202190; 10 μM), HIF-1α (3 μM) and O-glycosylation (benzyl-α-Ga1NAc; 2 mM) were from Calbiochem. Inhibitors of Erk1/2 (U0126; 5 μM), PI(3)K-Akt (Ly294002; 2 μM) and NF-κB (BAY 11-7082; 1 μM), ROS (N-acetyl-cysteine; NAC), N-glycosylation (swainsonine; 3 μM), lactose or sucrose (30 mM) were from Sigma. PNGase F (25 U/μg protein) was from New England Biolabs. […]

In test [1] the target is recombinant human Gal1 (rGal1) (Homo sapiens, UniProt P09382). The test can be described thus: Anti-Gal1 mAb neutralization of rGal1-induced apoptosis of activated T cells. The format is cell-based. To be noted: 10 μM rGal1 pre-incubated with 5 μM mAb; 16 h; Annexin V-FITC/PI. As for the experimental part:
Normal T cells were purified and activated with a combination of αCD3 (0.1 μg/ml) and αCD28 (0.5 μg/ml) as previously described (Juszczynski et al. (2007) Proc Natl Acad Sci USA 104:13134-9). Ten μM recombinant human Gal1 (rGal1) was pre-incubated with 5 μM anti-Gal1 mAb 8F4F8G7 or isotype control IgG2b2, (Rockland Immunochemicals Inc., Boyertown, Pa.) or medium alone at 37° C. for 30 min. Thereafter, rGal1+/− antibody was added to in vitro αCD3 and αCD28 activated T cells. After 16 h treatment, cells were harvested for apoptosis analysis using Annexin V-FITC and PI (BD Biosciences, San Jose, Calif.) flow cytometry as previously described (Juszczynski et al. (2007) Proc Natl Acad Sci USA 104:13134-9).

Chain of recombinant human Gal1 (rGal1) (P09382 whole entry): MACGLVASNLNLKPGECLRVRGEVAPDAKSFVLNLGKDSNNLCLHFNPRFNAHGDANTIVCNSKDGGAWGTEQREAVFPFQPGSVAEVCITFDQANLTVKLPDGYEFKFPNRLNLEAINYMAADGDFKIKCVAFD
T1 sequence (P09382 whole entry): as above

B1: anti-Gal1 monoclonal antibody 8F4F8G7 (antibody, V domains shown)
VH: EVQLQQSVAEFVRPGASVRLSCTASGFNIKNTYIHWVRQRPEQGLEWIGKIDPANGNTKYVPEFQGKATMTADTSSNTVYLHLSSLTSEDTAIYYCVDGYYGWYFAVWGTGTTVTVSS
VL: QAVVTQESALTTSPGETVTLTCRSSTGAVTTSNYANWVQEKPDHLFTGLIGATNNRAPGVPARFSGSLIGDKAVLTITGAQTEDEAIYFCALWYRNHFIFGSGTKVTVL
notes: Murine hybridoma mAb (deposit PTA-10535), lambda light chain; also called 14-19 8F4-F8-G7; clone 8F4.8F.67
In the case of B1, the “reactivity with endogenous Gal1” value with endogenous Gal1 is “specifically detected”. Moreover, the “effect on binding of Gal3 to the EC surface” value with Gal3 is recorded as “did not interfere”. Besides, the “rGal1-induced apoptosis of αCD3/αCD28-activated T cells” value in test [1] is “almost completely inhibited”.

For the origin of these results see patent US10456465B2, “Compositions, kits, and methods for the diagnosis prognosis, monitoring, treatment and modulation of post-transplant lymphoproliferative disorders and hypoxia associated angiogenesis disorders using galectin-1” (Dana-Farber Cancer Institute, Inc., priority 2009, dated 2019).
